From patent US20140220004A1 come the findings set out here.

The target of this experiment is human transient receptor potential cation channel, subfamily A, member 1 (hTRPA1) (human) (UniProt O75762). As to the kind of experiment: cell-based or functional assay.
Chain of UniProt O75762 (O75762 whole entry): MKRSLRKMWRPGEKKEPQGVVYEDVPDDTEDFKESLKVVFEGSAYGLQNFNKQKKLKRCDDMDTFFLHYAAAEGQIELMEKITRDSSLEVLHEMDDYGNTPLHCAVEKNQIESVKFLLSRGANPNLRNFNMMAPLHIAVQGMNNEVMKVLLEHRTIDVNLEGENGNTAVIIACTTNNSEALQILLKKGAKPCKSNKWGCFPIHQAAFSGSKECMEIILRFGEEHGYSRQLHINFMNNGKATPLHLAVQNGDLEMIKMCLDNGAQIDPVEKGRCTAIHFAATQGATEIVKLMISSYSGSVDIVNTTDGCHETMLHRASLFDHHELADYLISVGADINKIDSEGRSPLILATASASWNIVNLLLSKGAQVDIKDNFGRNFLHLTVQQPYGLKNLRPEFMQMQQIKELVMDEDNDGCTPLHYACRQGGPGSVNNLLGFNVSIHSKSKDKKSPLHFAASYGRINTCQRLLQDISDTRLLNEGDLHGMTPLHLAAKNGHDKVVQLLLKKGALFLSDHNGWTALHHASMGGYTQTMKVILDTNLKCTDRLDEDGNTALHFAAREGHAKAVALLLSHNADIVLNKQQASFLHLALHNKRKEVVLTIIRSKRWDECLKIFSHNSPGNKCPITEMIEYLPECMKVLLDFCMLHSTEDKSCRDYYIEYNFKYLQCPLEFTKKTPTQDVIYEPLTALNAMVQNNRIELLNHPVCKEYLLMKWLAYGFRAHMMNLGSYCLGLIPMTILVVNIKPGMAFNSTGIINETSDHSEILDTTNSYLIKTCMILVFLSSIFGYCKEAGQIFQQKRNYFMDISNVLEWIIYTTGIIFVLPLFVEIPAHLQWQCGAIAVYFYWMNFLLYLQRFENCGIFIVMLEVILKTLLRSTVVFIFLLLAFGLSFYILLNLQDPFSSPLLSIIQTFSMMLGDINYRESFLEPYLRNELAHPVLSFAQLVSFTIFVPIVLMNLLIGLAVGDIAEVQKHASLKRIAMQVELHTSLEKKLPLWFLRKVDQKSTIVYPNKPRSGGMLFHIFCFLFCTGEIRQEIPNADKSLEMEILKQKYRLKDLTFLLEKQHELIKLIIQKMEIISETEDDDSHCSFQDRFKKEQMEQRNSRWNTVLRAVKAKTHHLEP

“rabbit metallothionein 2 A isoform containing 7 zinc atoms (rabbit Zn7-MT2A) (Bestenbalt LLC, Estonia) (from UniProt P18055 1-62) (ligand)”: the calcium flux in HEK cells transfected to express human TRPA1 (EC50) was found to be 200 nM.
